In article PMC6212398 (Nature Communications, 2018):

Columns and labels:
Test in all cases: ITC; peptide (1 mM) titrated into a cell with Hsp27 proteins (100 µM); SEC buffer (50 mM sodium phosphate, 100 mM NaCl); 25 °C; one-site binding model
Settings in all cases: both partners purified
[1] = target: T1, Hsp27 alpha-crystallin domain (ACD, residues Q80–S176) (human, UniProt P04792 80-176)
T1 construct: Human Hsp27 (HSPB1), alpha-crystallin domain, residues Q80–S176; Used 15N-labelled (observed in HSQC) and unlabelled; Vector was a gift of the Klevit laboratory; also called Hsp27 ACD
T1 sequence (P04792 80-176): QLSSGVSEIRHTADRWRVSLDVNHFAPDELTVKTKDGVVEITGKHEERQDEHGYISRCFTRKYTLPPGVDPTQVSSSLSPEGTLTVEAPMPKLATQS

[2] = target: T2, Hsp27 ΔNTD (residues 80–205) (human, UniProt P04792 80-205)
T2 construct: Human Hsp27 (HSPB1) without the N-terminal domain, residues 80–205; Heterogeneous mixture of 3–5 mers; source: E. coli BL21 (DE3), purified (Ni-NTA, size exclusion)
T2 sequence (P04792 80-205, stated change not applied): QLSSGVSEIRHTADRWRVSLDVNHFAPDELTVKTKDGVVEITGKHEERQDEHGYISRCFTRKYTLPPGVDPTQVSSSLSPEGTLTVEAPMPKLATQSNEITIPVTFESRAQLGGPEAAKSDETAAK

[3] = target: T3, Hsp27 3D (pseudo-phosphorylation mutant S15D, S78D, S82D) (human, UniProt P04792 1-205, S15 replaced with aspartate | S78 replaced with aspartate | S82 replaced with …)
T3 construct: Human Hsp27 (HSPB1) in which three serines (S15, S78 and S82) are replaced with aspartate; Vector was a gift of the Dickey laboratory; Compared throughout with the full-length wild type, so probably the whole protein
T3 sequence (P04792 whole entry S15D/S78D/S82D): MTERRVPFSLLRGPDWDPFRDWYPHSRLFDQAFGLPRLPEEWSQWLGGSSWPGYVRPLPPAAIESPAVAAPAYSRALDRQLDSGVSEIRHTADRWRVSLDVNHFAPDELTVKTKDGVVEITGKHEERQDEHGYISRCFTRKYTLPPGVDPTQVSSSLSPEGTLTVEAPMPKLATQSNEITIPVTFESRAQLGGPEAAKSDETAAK

| Kd [1] [µM] | Kd [2] [µM] | Kd [3] [µM] | Binder |
| --- | --- | --- | --- |
| > 25 |  |  | EITAPVTHE (EITAPVTHE. The paper numbers the peptide from E176, so printed Ile179 (I of IPV) is UniProt I181. Peptide termini chemistry is not stated.) [Hsp27 IPV H peptide with Ile179 mutated to alanine] |
| > 25 |  |  | EITIPVTFE (Human Hsp27 (HSPB1), C-terminal IPV (IXI) motif, 9-mer; source: synthetic peptide, bought: Genescript) [Hsp27 IPV peptide (native 9-mer EITIPVTFE)] |
| ~5 |  |  | EITIAVTHE (Human Hsp27 (HSPB1) IPV peptide in the His-containing context with the proline of IPV mutated to alanine; source: synthetic peptide, bought: Genescript) [Hsp27 IPV H peptide with the second X residue (Pro) of IXIXV mutated to alanine (EITIAVTHE)] |
| 11.5 | 11.4 | > 50 | EITIPVTHE (Human Hsp27 (HSPB1) IPV 9-mer with the penultimate phenylalanine swapped for histidine (the residue at this position in the motif of BAG3); also called His-containing IPV peptide; chimeric peptide; source: synthetic peptide, bought: Genescript) [Hsp27 IPV H peptide (EITIPVTHE)] |
| > 25 |  |  | EITIPATHE (EITIPATHE. The paper numbers the peptide from E176, so printed Val181 (V of IPV) is UniProt V183. Peptide termini chemistry is not stated.) [Hsp27 IPV H peptide with Val181 mutated to alanine] |
